Tested on: Escherichia coli TOP10
Test: shrunken log2 fold change of peptide-encoding DNA abundance (4.5 h post-induction vs induction); higher = less antimicrobial activity (less host growth inhibition)
Settings: time post-induction: 4.5 h; library: site-saturation at positions 5, 18, 19, 20
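Note: peptides expressed intracellularly from a pBAD plasmid library in pooled LB shake-flask culture, induced with 0.3% L-arabinose, DNA abundance read by NGS, three biological replicates, DESeq2 with apeglm shrinkage.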

Row | Sequence | shrunken log2 fold change
1 | RRIRFRPPRLPRPRPRPCCPPRP | -0.468
2 | RRIRFRPPRLPRPRPRPCDRPRP | -0.179
3 | RRIRFRPPRLPRPRPRPCDTPRP | -0.09
4 | RRIRFRPPRLPRPRPRPCFDPRP | -0.121
5 | RRIRFRPPRLPRPRPRPCGKPRP | -0.018
6 | RRIRFRPPRLPRPRPRPCGNPRP | -0.0344
7 | RRIRFRPPRLPRPRPRPCGPPRP | 0.243
8 | RRIRFRPPRLPRPRPRPCIQPRP | -0.0483
9 | RRIRFRPPRLPRPRPRPCKLPRP | -1.48
10 | RRIRFRPPRLPRPRPRPCKTPRP | 0.00592
11 | RRIRFRPPRLPRPRPRPCLSPRP | -0.0617
12 | RRIRFRPPRLPRPRPRPCMIPRP | -0.118
13 | RRIRFRPPRLPRPRPRPCNLPRP | -0.264
14 | RRIRFRPPRLPRPRPRPCNNPRP | -0.82
15 | RRIRFRPPRLPRPRPRPCNSPRP | -0.0848
16 | RRIRFRPPRLPRPRPRPCPAPRP | 1.36
17 | RRIRFRPPRLPRPRPRPCQYPRP | -0.53
18 | RRIRFRPPRLPRPRPRPCTCPRP | -0.187
19 | RRIRFRPPRLPRPRPRPCTGPRP | 0.0368
20 | RRIRFRPPRLPRPRPRPCTHPRP | -0.842
21 | RRIRFRPPRLPRPRPRPCTTPRP | -0.381
22 | RRIRFRPPRLPRPRPRPCWSPRP | -0.443
23 | RRIRFRPPRLPRPRPRPCYFPRP | -0.379
24 | RRIRFRPPRLPRPRPRPDANPRP | -0.138
25 | RRIRFRPPRLPRPRPRPDCFPRP | -0.00719

Row | Sequence | shrunken log2 fold change
26 | RRIRFRPPRLPRPRPRPDCSPRP | 0.0229
27 | RRIRFRPPRLPRPRPRPDDHPRP | -0.139
28 | RRIRFRPPRLPRPRPRPDENPRP | -0.0759
29 | RRIRFRPPRLPRPRPRPDFNPRP | -0.637
30 | RRIRFRPPRLPRPRPRPDIDPRP | 0.0707
31 | RRIRFRPPRLPRPRPRPDLRPRP | -0.108
32 | RRIRFRPPRLPRPRPRPDRPPRP | 0.033
33 | RRIRFRPPRLPRPRPRPDSWPRP | -0.161
34 | RRIRFRPPRLPRPRPRPDYDPRP | -0.0802
35 | RRIRFRPPRLPRPRPRPDYRPRP | -0.0359
36 | RRIRFRPPRLPRPRPRPDYYPRP | -1.21
37 | RRIRFRPPRLPRPRPRPEAKPRP | 0.0369
38 | RRIRFRPPRLPRPRPRPEFSPRP | 0.0686
39 | RRIRFRPPRLPRPRPRPEGFPRP | 0.518
40 | RRIRFRPPRLPRPRPRPEGIPRP | 0.00745
41 | RRIRFRPPRLPRPRPRPEHDPRP | -0.446
42 | RRIRFRPPRLPRPRPRPEIRPRP | 0.0106
43 | RRIRFRPPRLPRPRPRPEIWPRP | 0.217
44 | RRIRFRPPRLPRPRPRPEIYPRP | 0.0026
45 | RRIRFRPPRLPRPRPRPEKIPRP | 0.102
46 | RRIRFRPPRLPRPRPRPEKMPRP | 0.0434
47 | RRIRFRPPRLPRPRPRPELEPRP | 0.537
48 | RRIRFRPPRLPRPRPRPELGPRP | 0.144
49 | RRIRFRPPRLPRPRPRPELPPRP | -0.0615
50 | RRIRFRPPRLPRPRPRPEMTPRP | -0.328

Row | Sequence | shrunken log2 fold change
51 | RRIRFRPPRLPRPRPRPENLPRP | -0.0251
52 | RRIRFRPPRLPRPRPRPENQPRP | -0.00277
53 | RRIRFRPPRLPRPRPRPENRPRP | -0.0215
54 | RRIRFRPPRLPRPRPRPEPDPRP | -0.0658
55 | RRIRFRPPRLPRPRPRPEPEPRP | 0.864
56 | RRIRFRPPRLPRPRPRPEQIPRP | 0.131
57 | RRIRFRPPRLPRPRPRPEQTPRP | -0.0498
58 | RRIRFRPPRLPRPRPRPERAPRP | 0.611
59 | RRIRFRPPRLPRPRPRPERSPRP | 0.0713
60 | RRIRFRPPRLPRPRPRPESAPRP | 0.428
61 | RRIRFRPPRLPRPRPRPESEPRP | 0.0687
62 | RRIRFRPPRLPRPRPRPESQPRP | -0.0723
63 | RRIRFRPPRLPRPRPRPESTPRP | -0.00608
64 | RRIRFRPPRLPRPRPRPETEPRP | -0.0257
65 | RRIRFRPPRLPRPRPRPETLPRP | 0.0591
66 | RRIRFRPPRLPRPRPRPETYPRP | -0.0354
67 | RRIRFRPPRLPRPRPRPEWFPRP | 0.0431
68 | RRIRFRPPRLPRPRPRPEYMPRP | -0.421
69 | RRIRFRPPRLPRPRPRPEYYPRP | -0.0413
70 | RRIRFRPPRLPRPRPRPFCEPRP | -0.124
71 | RRIRFRPPRLPRPRPRPFCQPRP | -0.317
72 | RRIRFRPPRLPRPRPRPFDCPRP | -0.0469
73 | RRIRFRPPRLPRPRPRPFFTPRP | -0.227
74 | RRIRFRPPRLPRPRPRPFGCPRP | -0.0616
75 | RRIRFRPPRLPRPRPRPFGRPRP | -0.199

Row | Sequence | shrunken log2 fold change
76 | RRIRFRPPRLPRPRPRPFHDPRP | -0.149
77 | RRIRFRPPRLPRPRPRPFIWPRP | -0.312
78 | RRIRFRPPRLPRPRPRPFLDPRP | -0.169
79 | RRIRFRPPRLPRPRPRPFLKPRP | -0.145
80 | RRIRFRPPRLPRPRPRPFMMPRP | -0.693
81 | RRIRFRPPRLPRPRPRPFMSPRP | -0.0532
82 | RRIRFRPPRLPRPRPRPFMYPRP | -0.742
83 | RRIRFRPPRLPRPRPRPFNHPRP | -0.285
84 | RRIRFRPPRLPRPRPRPFNLPRP | -0.66
85 | RRIRFRPPRLPRPRPRPFPGPRP | -0.00776
86 | RRIRFRPPRLPRPRPRPFPLPRP | -0.289
87 | RRIRFRPPRLPRPRPRPFQRPRP | 0.0192
88 | RRIRFRPPRLPRPRPRPFQYPRP | -0.127
89 | RRIRFRPPRLPRPRPRPFRVPRP | -0.119
90 | RRIRFRPPRLPRPRPRPFSAPRP | -0.274
91 | RRIRFRPPRLPRPRPRPFTFPRP | -0.41
92 | RRIRFRPPRLPRPRPRPFWGPRP | 0.0215
93 | RRIRFRPPRLPRPRPRPFYNPRP | -0.468
94 | RRIRFRPPRLPRPRPRPFYTPRP | -0.89
95 | RRIRFRPPRLPRPRPRPGACPRP | -0.0223
96 | RRIRFRPPRLPRPRPRPGAPPRP | 0.54
97 | RRIRFRPPRLPRPRPRPGDTPRP | -0.309
98 | RRIRFRPPRLPRPRPRPGDVPRP | -0.014
99 | RRIRFRPPRLPRPRPRPGEHPRP | -0.0294
100 | RRIRFRPPRLPRPRPRPGEVPRP | 0.185

Row | Sequence | shrunken log2 fold change
101 | RRIRFRPPRLPRPRPRPGFKPRP | 0.122
102 | RRIRFRPPRLPRPRPRPGGLPRP | 0.217
103 | RRIRFRPPRLPRPRPRPGGVPRP | 0.106
104 | RRIRFRPPRLPRPRPRPGIKPRP | -0.137
105 | RRIRFRPPRLPRPRPRPGISPRP | -0.0961
106 | RRIRFRPPRLPRPRPRPGIYPRP | -0.184
107 | RRIRFRPPRLPRPRPRPGKPPRP | -0.0809
108 | RRIRFRPPRLPRPRPRPGLMPRP | -0.125
109 | RRIRFRPPRLPRPRPRPGLRPRP | 0.23
110 | RRIRFRPPRLPRPRPRPGLTPRP | -0.143
111 | RRIRFRPPRLPRPRPRPGMAPRP | -0.058
112 | RRIRFRPPRLPRPRPRPGMSPRP | 0.0155
113 | RRIRFRPPRLPRPRPRPGPAPRP | 0.544
114 | RRIRFRPPRLPRPRPRPGPLPRP | 0.262
115 | RRIRFRPPRLPRPRPRPGRCPRP | 0.259
116 | RRIRFRPPRLPRPRPRPGRWPRP | 0.653
117 | RRIRFRPPRLPRPRPRPGVNPRP | 0.0431
118 | RRIRFRPPRLPRPRPRPGVRPRP | -0.118
119 | RRIRFRPPRLPRPRPRPGVTPRP | 0.0815
120 | RRIRFRPPRLPRPRPRPGYGPRP | 0.019
121 | RRIRFRPPRLPRPRPRPHAQPRP | -0.305
122 | RRIRFRPPRLPRPRPRPHAYPRP | -0.118
123 | RRIRFRPPRLPRPRPRPHCCPRP | -0.166
124 | RRIRFRPPRLPRPRPRPHCQPRP | -0.125
125 | RRIRFRPPRLPRPRPRPHCYPRP | 0.149

Row | Sequence | shrunken log2 fold change
126 | RRIRFRPPRLPRPRPRPHFFPRP | -0.053
127 | RRIRFRPPRLPRPRPRPHFGPRP | -0.197
128 | RRIRFRPPRLPRPRPRPHFKPRP | -0.599
129 | RRIRFRPPRLPRPRPRPHFMPRP | -0.538
130 | RRIRFRPPRLPRPRPRPHFVPRP | -0.176
131 | RRIRFRPPRLPRPRPRPHGLPRP | 0.0196
132 | RRIRFRPPRLPRPRPRPHKWPRP | -0.073
133 | RRIRFRPPRLPRPRPRPHLYPRP | -0.355
134 | RRIRFRPPRLPRPRPRPHNAPRP | -0.54
135 | RRIRFRPPRLPRPRPRPHPHPRP | -0.168
136 | RRIRFRPPRLPRPRPRPHQQPRP | 0.0921
137 | RRIRFRPPRLPRPRPRPHQSPRP | -0.114
138 | RRIRFRPPRLPRPRPRPHRDPRP | -0.36
139 | RRIRFRPPRLPRPRPRPHTSPRP | -0.907
140 | RRIRFRPPRLPRPRPRPHVDPRP | -0.00919
141 | RRIRFRPPRLPRPRPRPHVHPRP | -0.0448
142 | RRIRFRPPRLPRPRPRPICFPRP | -0.293
143 | RRIRFRPPRLPRPRPRPICSPRP | -0.0437
144 | RRIRFRPPRLPRPRPRPIDCPRP | -0.046
145 | RRIRFRPPRLPRPRPRPIFRPRP | -0.0966
146 | RRIRFRPPRLPRPRPRPIGQPRP | 0.00854
147 | RRIRFRPPRLPRPRPRPIHGPRP | -0.0163
148 | RRIRFRPPRLPRPRPRPIIVPRP | -0.394
149 | RRIRFRPPRLPRPRPRPIIWPRP | -0.273
150 | RRIRFRPPRLPRPRPRPILEPRP | -0.133

Source: the supplement of paper PMC9112550, “Optimization of the antimicrobial peptide Bac7 by deep mutational scanning” (BMC Biology, 2022)
